Source: the DeepSol protein solubility set

Assay: soluble on expression in E. coli; label from the status in PepcDB or PDB records

Sequence: MGSDKIHHHHHHMKIIKLRNNSPEFNYKMIVLARESRGIGQRELATLVETDQGNLSRIEKGAQTPVKDMIERISKALDYPVSFFRLQHSVYDFSKSYYRRKLKMPKKEIELSEAKINISKINIETLIRAVELPEPNYPTFDLSKDLSASACAIQLRKYWKLPHGRVENFTKVLEDNGVLVANIDFAGIEVDGHAILTENNLPIIFINKNITADRYRLTLAHELGHLCLHVGREIAEDRDVEQEAFMFAAELLTPEVEIAPDLCEVSIEKLKELKKYWKVSMGSLLKRAHVLKGVSDNQYKYLWQQMGNMGYKTVEPKELEFEKEKPKLLKEIIDAHLEELQYSEDELSELLGLKIQEFAKSYAPARPRLRVSKGKAR
- soluble on expression in E. coli: not soluble

Sequence: MNIRNARPEDLMNMQHCNLLCLPENYQMKYYFYHGLSWPQLSYIAEDENGKIVGYVLAKMEEDPDDVPHGHITSLAVKRSHRRLGLAQKLMDQASRAMIENFNAKYVSLHVRKRSVKWSPNTMQMGRTPMP
- soluble on expression in E. coli: not soluble

Sequence: MGSDKIHHHHHHMNETGLLDAYGTEEKEAYIGVIASIATADRVATEDELEYLNALSEAVGINPDVAEAAAKDRSDESLSKYLNALKGSDLRFSLITDIVSFARSDGRYTADEEEKIKNSCRYLGITDEQVTVLEELVEKSNILITIPEEATDEGFFEKNGFSQMLKKANIPLISIVKGLLGLAAPFVLSKMVRSRSLSGSPAAGGLGGQLGGTVLGTFQAGRIGGLGSILANLNGIRGYADIGTILKKAIDKKEINS
- soluble on expression in E. coli: not soluble

Sequence: MSLHISVMGELDSKADVDRLLESIDENCDCEIHLTFLDANVVPREIVEKIVKLKEHNKCKIFVLKAYLYSYFLSLGISCFLVKKKSILNKDFESKEKLSSQTFEPEKVEKFLWDIYDKYGFDFTEYRKDSIIRRIKISMLRYCMTNFDEFSHLALTDQDVFEQLFLDFSINTTNFFRDPEVFMFLREKVLLFLDSYSHIRIWCVGCSNGKEPYSLAIILKELGMLHKVQIYATDINPYVIEEAKNGLYSVSTINTDIANYKKSGGSKNFTDYFEVNGNYMKVKDDFKDNILFFQHSVIEKGILNEFQMILCRNVMIYFDIPLQKKVLRHFYNSLDSGGFLVMGKSEGMLLNNGYEYFADYNEKYSVYRRKEGHHHHHH
- soluble on expression in E. coli: soluble

Sequence: MAHHHHHHMPCRKIIIDTDCGGDDAIGIMTALADPNTDVIAMTAVWGNVNVNQGMENIGKLLDVFERDIPFYKGAEAPLVSDPETVQWGGFGKDGFGDADFPPSARVLVQSKTHAALAITELLRAAKPDEDAVYQLVCLGPLTNIALAMRLDPEVFHVLGSETEPAITIMGGASEAKGNSNLTSEFNMHCDPEAAYIVFNQRSMRPVRVVSWEVTVDCSMTWTFFDKWIGRQENGKKQQNRFQVFIEKVFQRLETFTRPLPDGTKANTGDAEATQDNTCVIPDAVAVVAALYPESILDRFITYCTVELHGRETRGQTCLDWYGTKQSMAKRGRWCNCELITRVDNARFLEAMNGILEYNV
- soluble on expression in E. coli: not soluble

Sequence: MMDPISIINKYYTEGTNQYHILVEHSRDVAALALRIVEIHPELQADRLFVEEAAMLHDIGIFLTDAESIACFGKEPYILHGYMGANILRKEGYPRHALVCERHTGSGLTSEDIAARQIALPPGIYTPQSIEEKIVCYADKFFSKTKLHRQKKLEDVRRSMLSYGADSLRRFDEMHALFKIPLG
- soluble on expression in E. coli: soluble

Sequence: MVESNKTAADTYSLAIFRAIRRLQQAAEIHSKRLSRYGGLTPLQLLILHVLAVEGELTATQLAKLVSLSQASLSGVLDRLEGRGLLYRRRDEQDRRKSWLHLDPAGHEALAEAPPLLPEYVIERFAALPEWERHGLLAALLRAADLFGLPEEDVEEE
- soluble on expression in E. coli: not soluble

Sequence: MSLEDYSVVNRFESHGGGWGYSAHSVEAIRFSADTDILLGGLGLFGGRGEYTAKIKLFELGPDGGDHETDGDLLAETDVLAYDCAAREKYAMMFDEPVLLQAGWWYVAWARVSGPSSDCGSHGQASITTDDGVIFQFKSSKKSNNGTDVNAGQIPQLLYRLPTSDGSTSKGKQQTSEPVHILKRSFARTVSVECFESLLSILHWSWTTLVLGVEELRGLKGFQFTATLLDLERLRFVGTCCLRLLRVYTCEIYPVSATGKAVVEETSKLAECIGKTRTLLRKILSEGVDHCMVKLDNDPQGYLSQPLRLLEAVLQECHNTFTACFHSFYPTPALQWACLCDLLNCLDQEANFKTSSSRLLAAVMSALCHTSVKLTSLFPIAYDGEVLLRSIVKQVSTENDSTLVHRFPLLVGHMEKLSQSEENISGMTSFREVLEKMLVIVVLPVRNSLRRESELFSSHLVSNTCGLLASIVSELTASALGSEVDGLNSLHSVKASANRFTKTSQGRSWNTGNGSPDAICFAVDKPGIVVVGFAVYGGGGIHEYELEVLVDDSEHAGDSTHSHRWTSLELVKGTYTTDDSPSDIAEIRLDKVVPLKENVKYAVRLRNYGSRTANGDGGMTTVQCPDGVTFTFSTCSLSSNGTNQTRGQIPQILYYRSEEGHHHHHH
- soluble on expression in E. coli: not soluble
